system: Escherichia coli TOP10; assay: shrunken log2 fold change of peptide-encoding DNA abundance (4.5 h post-induction vs induction); higher = less antimicrobial activity (less host growth inhibition); details: time post-induction: 4.5 h; library: site-saturation at positions 5, 18, 19, 20
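Note: peptides expressed intracellularly from a pBAD plasmid library in pooled LB shake-flask culture, induced with 0.3% L-arabinose, DNA abundance read by NGS, three biological replicates, DESeq2 with apeglm shrinkage.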

Sequence | shrunken log2 fold change
RRIRDRPPRLPRPRPRPYNQPRP | -0.135
RRIRFRPPRLPRPRPRPVNFPRP | -0.39
RRIRTRPPRLPRPRPRPMFAPRP | -0.0818
RRIRLRPPRLPRPRPRPCPAPRP | -0.00808
RRIRGRPPRLPRPRPRPVGQPRP | 0.145
RRIRPRPPRLPRPRPRPNQHPRP | -0.43
RRIRTRPPRLPRPRPRPLMLPRP | -0.297
RRIRERPPRLPRPRPRPQIWPRP | 0.0182
RRIRCRPPRLPRPRPRPESWPRP | 0.598
RRIRERPPRLPRPRPRPERPPRP | -0.0522
RRIRWRPPRLPRPRPRPPATPRP | 1.06
RRIRARPPRLPRPRPRPTFGPRP | 0.416
RRIRERPPRLPRPRPRPIWMPRP | 0.0239
RRIRFRPPRLPRPRPRPFFVPRP | -0.161
RRIRGRPPRLPRPRPRPFETPRP | 2.8
RRIRGRPPRLPRPRPRPTHAPRP | 1.3
RRIRNRPPRLPRPRPRPNEAPRP | -0.00931
RRIRVRPPRLPRPRPRPDSGPRP | -0.0439
RRIRVRPPRLPRPRPRPYQPPRP | -0.509
RRIRNRPPRLPRPRPRPCFQPRP | 0.012
RRIRSRPPRLPRPRPRPCTGPRP | -0.0404
RRIRMRPPRLPRPRPRPHMQPRP | -0.122
RRIRCRPPRLPRPRPRPQDDPRP | 0.0976
RRIRWRPPRLPRPRPRPSIHPRP | -0.319
RRIRQRPPRLPRPRPRPCPNPRP | -0.152

Sequence | shrunken log2 fold change
RRIRARPPRLPRPRPRPFFIPRP | -0.211
RRIRDRPPRLPRPRPRPWCGPRP | -0.00113
RRIRFRPPRLPRPRPRPKLHPRP | -0.0553
RRIRQRPPRLPRPRPRPRWHPRP | 0.197
RRIRKRPPRLPRPRPRPNLWPRP | 0.492
RRIRMRPPRLPRPRPRPRRGPRP | 1.09
RRIRWRPPRLPRPRPRPPDDPRP | 0.847
RRIRERPPRLPRPRPRPIFWPRP | 0.167
RRIRKRPPRLPRPRPRPGRPPRP | 0.857
RRIRIRPPRLPRPRPRPGFFPRP | -0.00894
RRIRLRPPRLPRPRPRPIISPRP | -0.513
RRIRWRPPRLPRPRPRPNWYPRP | -0.372
RRIRWRPPRLPRPRPRPWCRPRP | -0.000362
RRIRRRPPRLPRPRPRPHLLPRP | -0.0838
RRIRSRPPRLPRPRPRPEADPRP | 0.688
RRIRKRPPRLPRPRPRPTLTPRP | 0.283
RRIRPRPPRLPRPRPRPDWPPRP | 0.524
RRIRTRPPRLPRPRPRPWDNPRP | -0.0778
RRIRNRPPRLPRPRPRPGQGPRP | -0.0357
RRIRYRPPRLPRPRPRPMPSPRP | 0.0101
RRIRERPPRLPRPRPRPKKTPRP | -0.0747
RRIRDRPPRLPRPRPRPSWLPRP | 0.339
RRIRERPPRLPRPRPRPRNAPRP | 0.105
RRIRWRPPRLPRPRPRPWLKPRP | 0.0275
RRIRYRPPRLPRPRPRPNWHPRP | -0.575

Sequence | shrunken log2 fold change
RRIRDRPPRLPRPRPRPCNLPRP | -0.0295
RRIRQRPPRLPRPRPRPWNHPRP | -0.0081
RRIRGRPPRLPRPRPRPRAGPRP | 1.36
RRIRCRPPRLPRPRPRPHKIPRP | -0.217
RRIRYRPPRLPRPRPRPGFLPRP | -0.454
RRIRRRPPRLPRPRPRPYPLPRP | 0.015
RRIRRRPPRLPRPRPRPASMPRP | 0.0911
RRIRDRPPRLPRPRPRPNDEPRP | 0.418
RRIRHRPPRLPRPRPRPWPFPRP | -0.285
RRIRNRPPRLPRPRPRPPVMPRP | 0.139
RRIRERPPRLPRPRPRPDKIPRP | -0.0617
RRIRPRPPRLPRPRPRPPRIPRP | 0.233
RRIRWRPPRLPRPRPRPPCIPRP | 0.0939
RRIRTRPPRLPRPRPRPTGCPRP | -0.388
RRIRKRPPRLPRPRPRPHWSPRP | 0.139
RRIRWRPPRLPRPRPRPHFYPRP | -0.117
RRIRKRPPRLPRPRPRPSMFPRP | -0.15
RRIRMRPPRLPRPRPRPLDKPRP | 1.96
RRIRFRPPRLPRPRPRPKPPPRP | 1.35
RRIRWRPPRLPRPRPRPVTPPRP | 0.666
RRIRFRPPRLPRPRPRPACDPRP | 0.103
RRIRGRPPRLPRPRPRPWSIPRP | -0.108
RRIRKRPPRLPRPRPRPADVPRP | 0.127
RRIRHRPPRLPRPRPRPLDDPRP | -0.172
RRIRKRPPRLPRPRPRPQLRPRP | 0.2

Source: the supplement of paper PMC9112550, “Optimization of the antimicrobial peptide Bac7 by deep mutational scanning” (BMC Biology, 2022)
